Positions count from the first letter of the chain named. Blank lines part the entries; values can stand above or below the binder they belong to.
What was measured:
[1] = target: T1, hu-CD74 antigen (R&D SYSTEMS catalog #3590-CD-050) (human, UniProt P04233-2 73-232, limits assumed); experiment: SPR (Biacore T200), captured on anti-human Fc, rhCD74 analyte
T1 construct: Bought antigen; also called rhCD74; human CD74
T1 sequence (looked up): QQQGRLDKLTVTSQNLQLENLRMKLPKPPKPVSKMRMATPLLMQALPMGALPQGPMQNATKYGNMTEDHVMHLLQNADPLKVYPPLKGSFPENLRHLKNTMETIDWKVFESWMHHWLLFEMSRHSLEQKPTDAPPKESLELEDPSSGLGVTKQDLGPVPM
Procedure: (§1) Kinetic binding experiments were performed at 25° C. using 1×HBS-EP+buffer. Kinetic data was collected by injecting test and control antibodies at concentrations of 10, 5 and 2.5 μg/mL for 12 s at a flow rate of 10 μl/min on flow cells 2, 3 and 4 respectively, followed by a buffer wash for 30 s at the same flow rate. Kinetic characterization of antibody samples was carried out with 8 concentrations of a 1:2 dilution series of rhCD74 antigen (R&D Systems) and 2 injections of 0 nM antigen (buffer only). […] Between each ligand capture and analyte binding cycle, regeneration was carried out using 2 injections of 3M MgCl₂ for 30 seconds at 30 μL/min, followed by a 30 second buffer wash step.

[2] = target: T1, hu-CD74 antigen (R&D SYSTEMS catalog …); experiment: SPR (Biacore T200), IgG captured on anti-human Fc, rhCD74 analyte
Procedure: as §1

B1: 1275-G02 light chain paired with HC 1251-F07 (SEQ ID NO: 311) (antibody, human IgG1, V domains shown)
VH: QVQLVESGGGVVQPGRSLRLSCAASGFTFSSHGMHWVRQAPDKGLEWVAVIWDDGSNEVYADSVKGRFTISRDNSKNTLYLQMNSLRAEDTAVYYCARGGTRIRGLRYGTDVWGQGTTVTVSS
VL: DIQMTQSPSSLSASVGDRVTITCRASQGLGSFLAWYQQKPEKAPKSLIYLGNLLQIGVPSRFSGSGSGTDFTLTISSLQPEDFATYYCQQYNAYPLTFGGGTKVEIK
Kd [1]: 528 pM | koff [1]: 0.000297 s⁻¹ | kon [1]: 563000 M⁻¹ s⁻¹

B2: 1251-A06 heavy chain paired with VL SEQ ID NO: 272 (antibody, V domains shown)
VH: B1 VH with T28D, H32Y, N57D, E58R, V59Y, I103V, R104L, L106A, R107I, Y108H
VL: B1 VL with L29I, G30S, F32W, L50A, G51A, N52S, L53S, I56S, A93S
Kd [1]: 114 pM | koff [1]: 9.99e-05 s⁻¹ | kon [1]: 873000 M⁻¹ s⁻¹

B4: 1251-B08 heavy chain paired with VL SEQ ID NO: 272 (antibody, V domains shown)
VH: QVQLVESGGGVVQPGRSLRLSCAASGFNFSDYGMHWVRQAPDKGLEWVAVIWYDGSISYYADSVKGRFTISRDNSKNTLYLQMNSLRAEDTAVYYCARGGTVEHGAVYGTDVWGQGATVTVSS
VL: B1 VL with L29I, G30S, F32W, L50A, G51A, N52S, L53S, I56S, A93S
Kd [1]: 224 pM | koff [1]: 0.000106 s⁻¹ | kon [1]: 475000 M⁻¹ s⁻¹

B6: 1251-D02 heavy chain paired with VL SEQ ID NO: 272 (antibody, V domains shown)
VH: B1 VH with T28S, S30A, N57D, E58R, V59Y, I103V, R104L, L106A, R107I, Y108H
VL: B1 VL with L29I, G30S, F32W, L50A, G51A, N52S, L53S, I56S, A93S
Kd [1]: 189 pM | koff [1]: 0.000167 s⁻¹ | kon [1]: 885000 M⁻¹ s⁻¹

B8: HC 1251_B08 (g)/LC 1337_A09 (wt) (antibody, human IgG1, kappa, V domains shown)
VH: B4 VH with D42G, A117T
VL: DIQMTQSPSSLSASVGDRVTITCRASQGIGSWLAWYQQKPEKAPKSLIYAADRLQSGVPSRFSGSGSGTDFTLTISSLQPEDFATYYCQQYHTYPLTFGGGTKVEIKR
notes: IgG format
Kd [2]: 640 pM | koff [2]: 0.000106 s⁻¹ | kon [2]: 166000 M⁻¹ s⁻¹

B10: HC 1251_B08 (g)/LC 1275_C10 (g) (antibody, human IgG1, kappa, V domains shown)
VH: B4 VH with D42G, A117T
VL: B8 VL with L11V, I29V, G30S, E41G, S46L, A50S, D52R, R53Y, H92N, T93L
notes: IgG format
Kd [2]: 332 pM | koff [2]: 0.000102 s⁻¹ | kon [2]: 306000 M⁻¹ s⁻¹

B11: HC 1251_B08 (g)/LC 1337_A07 (g) (antibody, human IgG1, kappa, V domains shown)
VH: B4 VH with D42G, A117T
VL: B8 VL with L11V, G30S, L33V, E41G, S46L, A50G, D52S
notes: IgG format
Kd [2]: 239 pM | koff [2]: 7.76e-05 s⁻¹ | kon [2]: 325000 M⁻¹ s⁻¹

B14: HC 1251_B08 (wt)/LC 1337_A07 (wt) (antibody, human IgG1, kappa, V domains shown)
VH: B4 VH
VL: B8 VL with G30S, L33V, A50G, D52S
notes: IgG format
Kd [2]: 211 pM | koff [2]: 8.01e-05 s⁻¹ | kon [2]: 379000 M⁻¹ s⁻¹

B15: HC 1251_B08 (g)/LC 1337_A10 (wt) (antibody, human IgG1, kappa, V domains shown)
VH: B4 VH with D42G, A117T
VL: B8 VL with G30S, L33V, A50G, A51S, D52S, H92N
notes: IgG format
Kd [2]: 385 pM | koff [2]: 0.00012 s⁻¹ | kon [2]: 312000 M⁻¹ s⁻¹

B17: HC 1251_B08 (wt)/LC 1337_A09 (g) (antibody, human IgG1, kappa, V domains shown)
VH: B4 VH
VL: B8 VL with L11V, E41G, S46L
notes: IgG format
Kd [2]: 347 pM | koff [2]: 0.000115 s⁻¹ | kon [2]: 332000 M⁻¹ s⁻¹

B20: HC 1251_B08 (wt)/LC 1275_C10 (g) (antibody, human IgG1, kappa, V domains shown)
VH: B4 VH
VL: B8 VL with L11V, I29V, G30S, E41G, S46L, A50S, D52R, R53Y, H92N, T93L
notes: IgG format
Kd [2]: 437 pM | koff [2]: 0.000124 s⁻¹ | kon [2]: 284000 M⁻¹ s⁻¹

B21: HC 1251_B08 (wt)/LC 1337_A10 (wt) (antibody, human IgG1, kappa, V domains shown)
VH: B4 VH
VL: B8 VL with G30S, L33V, A50G, A51S, D52S, H92N
notes: IgG format
Kd [2]: 235 pM | koff [2]: 0.000115 s⁻¹ | kon [2]: 491000 M⁻¹ s⁻¹

The remaining lines, values ahead:

Kd [1]: 225 pM | koff [1]: 0.000218 s⁻¹ | kon [1]: 968000 M⁻¹ s⁻¹
B3: 1251-B09 heavy chain paired with VL SEQ ID NO: 272 (antibody, V domains shown)
VH: B4 VH with I51T, I57R, S58E, V102L, E103V, V107L, T110N, A117T
VL: B1 VL with L29I, G30S, F32W, L50A, G51A, N52S, L53S, I56S, A93S

Kd [1]: 75.2 pM | koff [1]: 0.000173 s⁻¹ | kon [1]: 2.3e+06 M⁻¹ s⁻¹
B5: 1251-D06 heavy chain paired with VL SEQ ID NO: 272 (antibody, V domains shown)
VH: QVQLVESGGGVVQPGRSLRLSCAASGFSFGSYGMHWVRQAPDKGLEWVAVVWYDGSKTIYADSVKGRFTISRDNSKNTLYLQMNSLRAEDTAVYYCARGGTLVRGAVYGLDVWGQGTTVTVSS
VL: B1 VL with L29I, G30S, F32W, L50A, G51A, N52S, L53S, I56S, A93S

Kd [2]: 189 pM | koff [2]: 8.63e-05 s⁻¹ | kon [2]: 457000 M⁻¹ s⁻¹
B7: HC 1251_A06 (g)/LC 1337_A09 (wt) (antibody, human IgG1, kappa, V domains shown)
VH: QVQLVESGGGVVQPGRSLRLSCAASGFDFSSYGMHWVRQAPGKGLEWVAVIWDDGSDRYYADSVKGRFTISRDNSKNTLYLQMNSLRAEDTAVYYCARGGTRVLGAIHGTDVWGQGTTVTVSS
VL: B8 VL
notes: IgG format

Kd [2]: 252 pM | koff [2]: 7.77e-05 s⁻¹ | kon [2]: 309000 M⁻¹ s⁻¹
B9: HC 1251_B08 (g)/LC 1337_A09 (g) (antibody, human IgG1, kappa, V domains shown)
VH: B4 VH with D42G, A117T
VL: B8 VL with L11V, E41G, S46L
notes: IgG format

Kd [2]: 862 pM | koff [2]: 0.000155 s⁻¹ | kon [2]: 180000 M⁻¹ s⁻¹
B12: HC 1251_B08 (g)/LC 1275_C10 (wt) (antibody, human IgG1, kappa, V domains shown)
VH: B4 VH with D42G, A117T
VL: B8 VL with I29V, G30S, A50S, D52R, R53Y, H92N, T93L
notes: IgG format

Kd [2]: 254 pM | koff [2]: 9.97e-05 s⁻¹ | kon [2]: 392000 M⁻¹ s⁻¹
B13: HC 1251_B08 (g)/LC 1337_A10 (g) (antibody, human IgG1, kappa, V domains shown)
VH: B4 VH with D42G, A117T
VL: B8 VL with L11V, G30S, L33V, E41G, S46L, A50G, A51S, D52S, H92N
notes: IgG format

Kd [2]: 349 pM | koff [2]: 9.23e-05 s⁻¹ | kon [2]: 265000 M⁻¹ s⁻¹
B16: HC 1251_B08 (g)/LC 1337_A07 (wt) (antibody, human IgG1, kappa, V domains shown)
VH: B4 VH with D42G, A117T
VL: B8 VL with G30S, L33V, A50G, D52S
notes: IgG format

Kd [2]: 957 pM | koff [2]: 0.000183 s⁻¹ | kon [2]: 191000 M⁻¹ s⁻¹
B18: HC 1251_B08 (wt)/LC 1337_A10 (g) (antibody, human IgG1, kappa, V domains shown)
VH: B4 VH
VL: B8 VL with L11V, G30S, L33V, E41G, S46L, A50G, A51S, D52S, H92N
notes: IgG format

Kd [2]: 108 pM | koff [2]: 0.000116 s⁻¹ | kon [2]: 1.07e+06 M⁻¹ s⁻¹
B19: HC 1251_B08 (wt)/LC 1337_A09 (wt) (antibody, human IgG1, kappa, V domains shown)
VH: B4 VH
VL: B8 VL
notes: IgG format

Kd [2]: 191 pM | koff [2]: 0.000119 s⁻¹ | kon [2]: 623000 M⁻¹ s⁻¹
B22: HC 1251_B08 (wt)/LC 1275_C10 (wt) (antibody, human IgG1, kappa, V domains shown)
VH: B4 VH
VL: B8 VL with I29V, G30S, A50S, D52R, R53Y, H92N, T93L
notes: IgG format

Kd [2]: 389 pM | koff [2]: 0.000148 s⁻¹ | kon [2]: 380000 M⁻¹ s⁻¹
B23: HC 1251_A06 (g)/LC 1337_A10 (g) (antibody, human IgG1, kappa, V domains shown)
VH: B7 VH
VL: B8 VL with L11V, G30S, L33V, E41G, S46L, A50G, A51S, D52S, H92N
notes: IgG format

Kd [2]: 188 pM | koff [2]: 9.03e-05 s⁻¹ | kon [2]: 479000 M⁻¹ s⁻¹
B24: HC 1251_A06 (g)/LC 1337_A10 (wt) (antibody, human IgG1, kappa, V domains shown)
VH: B7 VH
VL: B8 VL with G30S, L33V, A50G, A51S, D52S, H92N
notes: IgG format

Kd [2]: 611 pM | koff [2]: 0.000142 s⁻¹ | kon [2]: 232000 M⁻¹ s⁻¹
B25: HC 1251_B08 (wt)/LC 1337_A07 (g) (antibody, human IgG1, kappa, V domains shown)
VH: B4 VH
VL: B8 VL with L11V, G30S, L33V, E41G, S46L, A50G, D52S
notes: IgG format

From patent US20170253656A1 (SUTRO BIOPHARMA, published 2017)
